Measured values as given in patent US20040002059A1 (Boehringer Ingelheim, published 2004).
Substitutions are numbered along the chain they refer to. Numbers in names are those of the source.

Tests used:
[1] = target: N-terminally truncated HPV-11 E1 (E1*, amino acids 72-649) (human papilloma virus type 11 (HPV-11)) (UniProt P04014); test: cell-based or functional assay
[2] = target: the molecule itself; test: BMH cross-linking of in-vitro translated truncated proteins (FIG. 11)
[3] = target: the molecule itself; test: BMH cross-linking of 35S-labelled protein, immunoprecipitation, gel electrophoresis (FIG. 10)
[4] = target: the molecule itself; test: BMH cross-linking with ss DNA (FIG. 12B)
[5] = target: T1, HPV-11 E1 (330-649) fused to the GAL4 DNA-binding domain (BD) (human papilloma virus type 11 (HPV-11)); test: yeast two-hybrid, β-galactosidase activity (FIG. 1B)
T1 construct: also called larger E1 fragment (330-649)

thioredoxin fusion protein TRX-E1 (353-431) (from UniProt P04014 353-431)
50% inhibitory concentration for inhibition of the binding of E1* (72-649) to the origin [1]: 3 µM

B1: truncated HPV-11 E1 (353-649) made by in-vitro translation (enzyme)
chain: DSQFKLTEMVQWAYDNDICEESEIAFEYAQRGDFDSNARAFLNSNMQAKYVKDCAIMCRHYKHAEMKKMSIKQWIKYRGTKVDSVGNWKPIVQFLRHQNIEFIPFLSKLKLWLHGTPKKNCIAIVGPPDTGKSCFCMSLIKFLGGTVISYVNSCSHFWLQPLTDAKVALLDDATQPCWTYMDTYMRNLLDGNPMSIDRKHRALTLIKCPPLLVTSNIDISKEEKYKYLHSRVTTFTFPNPFPFDRNGNAVYELSDANWKCFFERLSSSLDIEDSEDEEDGSNSQAFRCVPGSVVRTL
notes: also called residues 353-649 of E1
binding result [2]: binds

B2: truncated HPV-11 E1 (191-649) made by in-vitro translation (enzyme)
chain: DTSGILELLKCKDIRSTLHGKFKDCFGLSFVDLIRPFKSDRTTCADWVVAGFGIHHSIADAFQKLIEPLSLYAHIQWLTNAWGMVLLVLIRFKVNKSRCTVARTLGTLLNIPENHMLIEPPKIQSGVAALYWFRTGISNASTVIGEAPEWITRQTVIEHSLADSQFKLTEMVQWAYDNDICEESEIAFEYAQRGDFDSNARAFLNSNMQAKYVKDCAIMCRHYKHAEMKKMSIKQWIKYRGTKVDSVGNWKPIVQFLRHQNIEFIPFLSKLKLWLHGTPKKNCIAIVGPPDTGKSCFCMSLIKFLGGTVISYVNSCSHFWLQPLTDAKVALLDDATQPCWTYMDTYMRNLLDGNPMSIDRKHRALTLIKCPPLLVTSNIDISKEEKYKYLHSRVTTFTFPNPFPFDRNGNAVYELSDANWKCFFERLSSSLDIEDSEDEEDGSNSQAFRCVPGSVVRTL
notes: also called E1 protein comprised of amino acids 191-649
binding result [2]: binds

B3: N-terminally truncated HPV-11 E1 (E1*, amino acids 72-649) (enzyme)
chain: ADAHYATVQDLKRKYLGSPYVSPISNVANAVESEISPRLDAIKLTTQPKKVKRRLFETRELTDSGYGYSEVEAATQVEKHGDPENGGDGEERDTGRDIEGEGVEHREAEAVDDSTREHADTSGILELLKCKDIRSTLHGKFKDCFGLSFVDLIRPFKSDRTTCADWVVAGFGIHHSIADAFQKLIEPLSLYAHIQWLTNAWGMVLLVLIRFKVNKSRCTVARTLGTLLNIPENHMLIEPPKIQSGVAALYWFRTGISNASTVIGEAPEWITRQTVIEHSLADSQFKLTEMVQWAYDNDICEESEIAFEYAQRGDFDSNARAFLNSNMQAKYVKDCAIMCRHYKHAEMKKMSIKQWIKYRGTKVDSVGNWKPIVQFLRHQNIEFIPFLSKLKLWLHGTPKKNCIAIVGPPDTGKSCFCMSLIKFLGGTVISYVNSCSHFWLQPLTDAKVALLDDATQPCWTYMDTYMRNLLDGNPMSIDRKHRALTLIKCPPLLVTSNIDISKEEKYKYLHSRVTTFTFPNPFPFDRNGNAVYELSDANWKCFFERLSSSLDIEDSEDEEDGSNSQAFRCVPGSVVRTL
notes: Made by coupled in vitro transcription/translation in rabbit reticulocyte lysate; 35S-labelled in the cross-linking assay; Forms up to hexamers; also called E1 (72-649); E1* (72-649)
binding result [3]: binds

B4: E1* (72-649) F509A (enzyme)
chain: B3 chain with F438A
binding result [4]: binds

B5: truncated HPV-11 E1 (330-649) made by in-vitro translation (enzyme)
chain: ASTVIGEAPEWITRQTVIEHSLADSQFKLTEMVQWAYDNDICEESEIAFEYAQRGDFDSNARAFLNSNMQAKYVKDCAIMCRHYKHAEMKKMSIKQWIKYRGTKVDSVGNWKPIVQFLRHQNIEFIPFLSKLKLWLHGTPKKNCIAIVGPPDTGKSCFCMSLIKFLGGTVISYVNSCSHFWLQPLTDAKVALLDDATQPCWTYMDTYMRNLLDGNPMSIDRKHRALTLIKCPPLLVTSNIDISKEEKYKYLHSRVTTFTFPNPFPFDRNGNAVYELSDANWKCFFERLSSSLDIEDSEDEEDGSNSQAFRCVPGSVVRTL
binding result [2]: binds

B6: C-terminal HPV-11 E1 fragment (amino acids 435-649) fused to the GAL4 activation domain (AD) (other)
chain: DSVGNWKPIVQFLRHQNIEFIPFLSKLKLWLHGTPKKNCIAIVGPPDTGKSCFCMSLIKFLGGTVISYVNSCSHFWLQPLTDAKVALLDDATQPCWTYMDTYMRNLLDGNPMSIDRKHRALTLIKCPPLLVTSNIDISKEEKYKYLHSRVTTFTFPNPFPFDRNGNAVYELSDANWKCFFERLSSSLDIEDSEDEEDGSNSQAFRCVPGSVVRTL
notes: also called E1 (435-649)
binding result [5]: no binding
